Experimental data as given in the DeepSol protein solubility set.

assay: soluble on expression in E. coli; label from the status in PepcDB or PDB records

Sequence	soluble on expression in E. coli
MAQGFAVGFDPLGLGDLSSGSLSSLSSRGHLGSDSGSTATRYLLRKQQRLLNGPPRGIRASSPMGRVILINSPIEANSDESDIIHSVRVEKSPAGRLGFSVRGGSEHGLGIFVSKVEEGSSAERAGLCVGDKITEVNGLSLESTTMGSAVKVLTSSSRLHMMVRRMGRVPGIKFSKEKTTWVDVVNRRLVVEKCGSTPSDTSSEDGVRRIVHLYTTSDDFCLGFNIRGGKEFGLGIYVSKVDHGGLAEENGIKVGDQVLAANGVRFDDISHSQAVEVLKGQTHIMLTIKETGRYPAYKEMVSEYCWLDRLSNGVLQQLSPASESSSSVSSCASSAPYSSGSLPSDRMDICLGQEEPGSRGPGWGRADTAMQTEPDAGGRVETWCSVRPTVILRDTAIRSDGPHPGRRLDSALSESPKTALLLALSRPRPPITRSQSYLTLWEEKQQRKEKSGSPGEKGALQRSKTLMNLFFKGGRQGRLARDGRREAWTLDSGSLAKTYPRLDIEKEMGAT	soluble
MAQGNQQIDNQVLHHLRQKFPEVPEDVVCECVLQNKSDLAACCEYLTKVSPRFLYSEGSQSLTDLRNHMTQLNLGVSQNTHGAVQRDAVGMNGSRTLAPSVSDGPLNVPSALSEFYQPETPSVPTHTPASLSMESTRKPQPPQHLGLYQVGGKGHAPPQAPRFNPITVTLAPNTGRNTPTSLHIHGGPQSGLNSPNSIYIRPYVTQPGSTRQVQCRAQYSPTSQPAQQIYQITHPAAPQSSWSQHQTSHVYMPISSPTNTHTHTRFTCVCARVRMPVCLIHGNGR	not soluble
MAQNESPAEQLFAAIGLLRRHTRRRVGRPWPETPLTGSQVELVRLLRRRPGTSVAEAAAALGLAANTVSTLVRQLTDAGLVERVRDESDRRVARLALTDDARAQVERWRDRRNIEVAAAFDGLSAEDRKAIESAIPAITRLAGALHPDQAGPSDQEVVR	not soluble
MARASGASDYRSGELSHQDERGAAHMVDITEKATTKRTAVAAGILRTSAQVVALISTGGLPKGDALATARVAGIMAAKRTSDLIPLCHQLALTGVDVDFTVGQLDIEITATVRSTDRTGVEMEALTAVSVAALTLYDMIKAVDPGALIDDIRVLHKEGGRRGTWTRR	soluble
MARGMNHVYLIGALARDPELRYTGNGMAVFEATVAGEDRVIGNDGRERNLPWYHRVSILGKPAEWQAERNLKGGDAVVVEGTLEYRQWEAPEGGKRSAVNVKALRMEQLGTQPELIQDAGGGVRMSGAMNEVLVLGNVTRDPEIRYTPAGDAVLSLSIAVNENYQDRQGQRQEKVHYIDATLWRDLAENMKELRKGDPVMIMGRLVNEGWTDKDGNKRNSTRVEATRVEALARGAGNANSGYAAATPAAPRTQTASSAARPTSGGYQSQPSRAANTGSRSGGLDIDQGLDDFPPEEDDLPF	soluble
MARGPKKHLKRLAAPKAWMLDKLGGVFAPRPSTGPHKLRESLPLLIFLRNRLKYALNGAEVTKIVMQRLVKVDGKVRTDPTYPAGYMDVITLEKTGEFFRLVYDVKGRFVIHRISAEEAKYKLCKVKKTQLGAKGVPFLVTHDGRTIRYPDPLIHANDSVQVDIASGKITDYIKFDSGNLCMITGGRNLGRVGTVVNRERHPGSFDIVHIKDSQGHVFATRLTNVFIIGKGNKPYISLPKGKGVKLSIAEERDKRLAAKTH	not soluble
MARKNQKAPWEPEEEIIWVSKSEMKRDMEELQKLGEELVGLKPAVLEKFPLSEDLREAIADAQRFKNEARRRQLQRIGKLMRYEDPEPIQAALDKVRNKHSQATAALHKLEMLRDRVVEEGDKAIDDVMELYPEADRQRLRQLARQAAKEKKAGKPAKSYREIFQILKALNEEE	soluble
MARKTKPLTDTEIKAAKPKDADYQLYDGDGLTLLIKSSGSKLWQFRYYRPLTKQRTKQSFGAYPAVSLSDARKLRAESKVLLAKDIDPQEHQKEQVRNSQEAKTNTFLLVAERWWNVKKTSVTEDYADDIWRSLERDIFPAIGDISITEIKAHTLVKAVQPVQARGALETVRRLCQRINEVMIYAQNTGLIDAVPSVNIGKAFEKPQKKNMPSIRPDQLPQLMHTMRTASISMSTRCLFMWQLLTITRPAEAAEARWDEIDFNASEWKIPAARMKMNRDHTVPLSDGALAILEMMKPLSGGREFIFPSRIKPNQPMNSQTVNAALKRAGLGGVLVSHGLRSIASTALNEEGFPPDVIEAALAHVDKNEVRRAYNRSDYLEQRRPMMQWWADLVKAADSGSIVLTHLSKIRLVG	soluble
MARLSQEIILDMAEQIIYEKGMEKTTLYDIAGNLNVTHAALYKHYRNKEDLFQKLALRWLEETSREIFAWTKEKDASPDDALHDWLWLLADTKKTLYKTDRKMFLLYTDYIEQKEELVKNHIEHLAQKAEEVSGRVNQGDAIITAFIYFHNPYFASRWEKAGYVELFERVWQVVR	not soluble
MARPLKQGIDYFPLSVDFLRDIKVRKIKRACGPYTVEILLCLLGNIYRETGYYIGWDEDTMFLVADEVGAKEGLVEETVNKAVQVGFFNQEKFNEYRILTSNGIQKRYLEATKKRKEVVISDIYLVNDTIKDEETLVNGVDNEQSKVNKSKVDKSKVNKNNKEKPAVQLSSEKDFLENPLGDKKTAELIAYYSKNVSLATPVNMTNLAYDLKDFNGDLDLLKEAINICSSNVKTYAYFAGILKQWRANGINTHADFLKKVNKKSKQKNKRDSEPPLNDYSGLF	not soluble
MARRISSQGKVTISVDEYSSNPTQAFTHYNINQSRFQPPHVHMVEPLPYDAPKSVGHTRFVCVSDTHSRTDGIQMPFGDVLLHTGDFTELGLPSEVKKFNDWLGGLPYEYKVVIAGNHELTFDKDFMAELIKQDYYRFPSVSKLRSEDFDDVQSLLTNCVYLQDSEVTIKGFRIYGAPWTPWFNGWGFNLPRGQSLLDKWNQIPEDVDILMTHGPPLGFRDWVPKELQRVGCVELLNTVQKRVRPKLHAYGGIHEGYGIMTDGYTTFINSSTCTVSFQPTNPPIIFDLPNPGNS	not soluble
MARTLFLEEGPMFFEKIAPYTYRIPRQGKMRVDAVFFASKEILKDLEAENYASLQQLMNVATLPGIVEPALAMPDIHWGYGFPIGGVAAFDPEEGGVVSPGGVGFDINCGVRLLASHLTLEDLLPRQKELADALYRLVPSGVGSERRDVRFSKRELKEILKEGAGWLVKRGYGYPEDVRFIESQGRLPWANPDKVSERAFERGAPQIGTLGSGNHFLEVQYVDEVYDEEAALAFGLFKGQVTVLIHTGSRGLGHQVCQDYVERFLKVAPRYGIELVDKQLAAAPIKSPEGQDYLQAMAAAANFAFANRQLIAHFVREAFEKVGFTPRDHGLRVLYDLAHNNAKFEEHRGRRVLVHRKGATRAFGPGHPEVPEEYRRVGQPVLVPGDMGRYSYVLAGTEKAMEVSFGSSCHGAGRKMSRHQAKKVARERNLVKELAERGILVRAATRATVDEEMPEAYKDVSLVVEAVEGAGIGKKVARLRPLIVVKG	soluble
MARVRFENKRVNMSKLSQFGFEPNQNGQYQFRILIMQGQFEMIIELNTDGSLNTTLTDTTTSEVYVLHLTSQAHGQFVGQVAQAYQDVLYNIEQHCYDNDVFQSTPERKLIAQVKAAYGDDLEFLWPKFPQNAVWRRSDTHKWYGALLTVTSDKLALPGATHVVTVLDLRARPEDLSMLIDGQHYLPGYHMNKKHWYSILLDDVVPLATIMDDVKVSYMLAKLEHHHHHH	not soluble
MASDLESSLTSIDWLPQLTLRATIEKLGSASQAGPPGSSRKCSPGSPTDPNATLSKDEAAVHQDGKPRYSYATLITYAINSSPAKKMTLSEIYRWICDNFPYYKNAGIGWKNSIRHNLSLNKCFRKVPRPRDDPGKGSYWTIDTCPDISRKRRHPPDDDLSQDSPEQEASKSPRGGVAGSGEASLPPEGNPQMSLQSPTSIASYSQGTGSVDGGAVAAGASGRESAEGPPPLYNTNHDFKFSYSEINFQDLSWSFRNLYKSMLEKSSSSSQHGFSSLLGDIPPSNNYYMYQQQQPPPPQQQQQQQQPPQPPPQQSQPQQQQAPAQGPSAVGGAPPLHTPSTDGCTPPGGKQAGAEGYGPPPVMAMHPPPLQHGGYHPHQHHPHSHPAQQPPPPQPQAQGQAPINNTGFAFPSDWCSNIDSLKESFKMVNRLNWSSIEQSQFSELMESLRQAEQKNWTLDQHHIANLCDSLNHFLTQTGHVPPQGGTHRPPAPARIADSCALTSGKQESAMSQVNSYGHPQAPHLYPGPSPMYPIPTQDSAGYNRPAHHMVPRPSVPPPGANEEIPDDFDWDLIT	soluble
MASDVTVNVSAEKQVIRGFGGMNHPAWAGDLTAAQRETAFGNGQNQLGFSILRIHVDENRNNWYKEVETAKSAVKHGAIVFASPWNPPSDMVETFNRNGDTSAKRLKYNKYAAYAQHLNDFVTFMKNNGVNLYAISVQNEPDYAHEWTWWTPQEILRFMRENAGSINARVIAPESFQYLKNLSDPILNDPQALANMDILGTHLYGTQVSQFPYPLFKQKGAGKDLWMTEVYYPNSDTNSADRWPEALDVSQHIHNAMVEGDFQAYVWWYIRRSYGPMKEDGTISKRGYNMAHFSKFVRPGYVRIDATKNPNANVYVSAYKGDNKVVIVAINKSNTGVNQNFVLQNGSASNVSRWITSSSSNLQPGTNLTVSGNHFWAHLPAQSVTTFVVNRLEHHHHHHHH	soluble
MASGDVRIASLVPSITELLFDLGLADQLVARTGFCIHPEPAVRAVAKVGGTKDVKLDRLRALAPTHVVVNIDENRRETVDEIRTFVPHVIVTHPCAPEDNLALYRLLGGIFGRRPQAEALVGQLRGELDAIQAQTWPLEHHHHHH	not soluble
MASGPHSTATAAAAASSAAPSAGGSSSGTTTTTTTTTGGILIGDRLYSEVSLTIDHSLIPEERLSPTPSMQDGLDLPSETDLRILGCELIQAAGILLRLPQVAMATGQVLFHRFFYSKSFVKHSFEIVAMACINLASKIEEAPRRIRDVINVFHHLRQLRGKRTPSPLILDQNYINTKNQVIKAERRVLKELGFCVHVKHPHKIIVMYLQVLECERNQTLVQTAWNYMNDSLRTNVFVRFQPETIACACIYLAARALQIPLPTRPHWFLLFGTTEEEIQEICIETLRLYTRKKPNYELLEKEVEKRKVALQEAKLKAKGLNPDGTPALSTLGGFSPASKPSSPREVKAEEKSPISINVKTVKKEPEDRQQASKSPYNGVRKDSKRSRNSRSASRSRSRTRSRSRSHTPRRHYNNRRSRSGTYSSRSRSRSRSHSESPRRHHNHGSPHLKAKHTRDDLKSSNRHGHKRKKSRSRSQSKSRDHSDAAKKHRHERGHHRDRRERSRSFERSHKSKHHGGSRSGHGRHRR	not soluble
MASGRQSGRDTEEYGGLSNSGISSGSHVKDTAYYERRRKNNAAAKKSRDRRRIKEDEIAIRAAYLERQNIELLCRIDALEVQLAAITSAKVTTAAAAAAALEHHHHHH	not soluble
MASIFESPELIGAFIGEVEEQLQLLENNVVELEKNGGTAEVVQELFRAAHTLKGSSATMGFEKMKTLTHEMENVLDKIRNGLLEISRPVIDVLFECLDCLNMLKEDFVSDSNNVKTEITPVITKLKEISSENETNNQNSDSDKAENLETGRREQPIFVLDEKQQEQINQALGIGQNVLVCEVEILEDSQMKSVRACLIMNFLNEWGTVINMVPNVMEIPIDSDVGKVAFLVVTQMSADELRQKVQNDLMDIKEVRVFPYFIQNSISQTKDGETGVRDKDNSSGVKTATEEKRVVHTVRIDVDRLERMMDLVGELVIEQIRIAQVANNLYNQYPSDETVDDLIGISNRVSILINELQEGIMKTRMIPVQQLFSRFPRMVRDLSVSLNKEVNLVLEGGETEIDRTIMEEMSDPLIHLIRNAIDHGIENPEIRKKLGKPEQGTLRVTALPEDSNVIITVEDDGAGIDPQEIKQSAIKKRIVTEQEANNMTEQQLINLIFQTGFSTSQKVSDVSGRGVGMDIVKTHIEKLNGIIDVETCAGSGTKFIIKLPIKLPLTLAILKGLLVKISNETYALPMNNVVEIVRKPKNEIESINGQAVAVIRDRAIPLIWLHDYFGIPRGNERKNTLIVLLGIAEKRFGLVVDELIGNQEIVVTNLGSYIGKVEGISGATILGDRSVACILDVVGIAKIVNSRKVSRIDVEYSKQ	not soluble
